Results taken from patent US20170096493A1 (EISAI R AND D MANAGEMENT, published 2017).
Numbering of substitutions follows the chain as printed. Names and notes keep the numbering of the source. Each block holds one binder with its values, some of them ahead of it.

How the values were obtained:
[1] = molecular target: T1, Human Notch4-NRR domain Fc fusion protein (human, UniProt Q99466 1046-1445, limits assumed); experiment: SPR (Biacore) as for Table 30; Notch4-NRR-Fc captured, antibody injected; averaged, N=3
T1 construct: Expressed in a CHO cell line, used from culture supernatant; 1 is named; also called Human Notch4-NRR Fusion Protein; not shown: Fc
T1 sequence: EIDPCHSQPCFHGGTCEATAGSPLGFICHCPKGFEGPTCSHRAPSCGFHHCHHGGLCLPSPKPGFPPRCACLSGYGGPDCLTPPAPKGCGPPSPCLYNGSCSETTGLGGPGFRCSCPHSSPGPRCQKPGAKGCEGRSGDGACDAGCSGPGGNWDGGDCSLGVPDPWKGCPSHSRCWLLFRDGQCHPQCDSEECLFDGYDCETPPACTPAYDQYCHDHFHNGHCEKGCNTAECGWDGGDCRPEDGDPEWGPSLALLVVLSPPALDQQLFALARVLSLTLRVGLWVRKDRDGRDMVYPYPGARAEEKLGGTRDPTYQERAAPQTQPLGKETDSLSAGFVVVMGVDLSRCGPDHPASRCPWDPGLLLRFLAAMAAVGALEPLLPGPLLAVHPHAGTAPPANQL
Experimental: (§1) Kinetic analysis of further anti-Notch4 inhibitory humanized antibodies was carried out as follows. Human Notch4-NRR domain Fc fusion proteins were expressed with a CHO cell line. The antigen in the culture supernatant was captured by the anti-human Notch4 antibody fixed on a CM5 sensor chip that recognizes different epitopes of human Notch4. The humanized anti-human Notch4 antibody was then injected onto the sensor chip at various concentrations. The interaction and disassociation constants thereof were calculated according to manufacturer's instructions.

[2] = molecular target: T1, Human Notch4-NRR domain Fc fusion …; experiment: SPR (Biacore) as for Table 30; Notch4-NRR-Fc captured, antibody injected; averaged, N=4
Experimental: as §1

[3] = molecular target: T1, Human Notch4-NRR domain Fc fusion …; experiment: SPR (Biacore) as for Table 30; Notch4-NRR-Fc captured, antibody injected; averaged, N=2
Experimental: as §1

[4] = molecular target: T1, Human Notch4-NRR domain Fc fusion …; experiment: SPR (Biacore) as for Table 30; Notch4-NRR-Fc captured, antibody injected; averaged, N=6
Experimental: as §1

B3: HK2L2 (antibody, human IgG2, kappa, V domains shown)
VH: EVQLVESGGGLVQPGGSLRLSCAASGFTFSSYGMSWVRQAPGKGLELVSTINSNGGRTYYPDSVKGRFTISRDNSKNTLYLQMGSLRAEDMAVYYCARDQGFAYWGQGTLVTVSS
VL: DIQMTQSPSSLSASVGDRVTITCKASQDVGTAVAWYQQKPGKVPKLLIYWASTRHTGVPSRFSGSGSGTDFTLTISSLQPEDVATYFCQQYSSYPWTFGQGTKVEIKR
notes: Humanized IgG2 (V234A, G237A)/κ; also called No. 12
Kd [2]: 1.38 nM
koff [2]: 0.00157 s⁻¹
kon [2]: 1.23e+06 M⁻¹ s⁻¹

B4: HA1L2 (antibody, human IgG2, kappa, V domains shown)
VH: B3 VH with L47Y, P61A, D62N
VL: B3 VL
notes: Humanized IgG2 (V234A, G237A)/κ; also called No. 22
Kd [3]: 18.6 nM
koff [3]: 0.0122 s⁻¹
kon [3]: 649000 M⁻¹ s⁻¹

B5: HA2L1 (antibody, human IgG2, kappa, V domains shown)
VH: B3 VH with P61A, D62N
VL: B3 VL with F87Y
notes: Humanized IgG2 (V234A, G237A)/κ; also called No. 26
Kd [2]: 1.76 nM
koff [2]: 0.00166 s⁻¹
kon [2]: 949000 M⁻¹ s⁻¹

B7: HK1L5 (antibody, human IgG2, kappa, V domains shown)
VH: B3 VH with L47Y
VL: B3 VL with V43S
notes: Humanized IgG2 (V234A, G237A)/κ; also called No. 10
Kd [1]: 1.78 nM
koff [1]: 0.00489 s⁻¹
kon [1]: 2.72e+06 M⁻¹ s⁻¹

B13: HK3L6(Lys-) (antibody, human IgG2, kappa, V domains shown)
VH: B3 VH with S49A, R87K
VL: EIVMTQSPATLSVSPGERATLSCKASQDVGTAVAWYQQKPGQSPRLLIYWASTRHTGIPARFSGSGSGTEFTLTISSLQSEDFAVYFCQQYSSYPWTFGQGTKVEIKR
notes: Humanized IgG2 (V234A, G237A)/κ; also called No. 42
Kd [1]: 0.766 nM
koff [1]: 0.00114 s⁻¹
kon [1]: 1.51e+06 M⁻¹ s⁻¹

B15: HK2L1 (antibody, human IgG2, kappa, V domains shown)
VH: B3 VH
VL: B3 VL with F87Y
notes: Humanized IgG2 (V234A, G237A)/κ; also called No. 11
Kd [2]: 1.84 nM
koff [2]: 0.0016 s⁻¹
kon [2]: 875000 M⁻¹ s⁻¹

B16: HK2L4 (antibody, human IgG2, kappa)
heavy: EVQLVESGGGLVQPGGSLRLSCAASGFTFSSYGMSWVRQAPGKGLELVSTINSNGGRTYYPDSVKGRFTISRDNSKNTLYLQMGSLRAEDMAVYYCARDQGFAYWGQGTLVTVSSASTKGPSVFPLAPCSRSTSESTAALGCLVKDYFPEPVTVSWNSGALTSGVHTFPAVLQSSGLYSLSSVVTVPSSNFGTQTYTCNVDHKPSNTKVDKTVERKCCVECPPCPAPPAAAPSVFLFPPKPKDTLMISRTPEVTCVVVDVSHEDPEVQFNWYVDGVEVHNAKTKPREEQFNSTFRVVSVLTVVHQDWLNGKEYKCKVSNKGLPAPIEKTISKTKGQPREPQVYTLPPSREEMTKNQVSLTCLVKGFYPSDIAVEWESNGQPENNYKTTPPMLDSDGSFFLYSKLTVDKSRWQQGNVFSCSVMHEALHNHYTQKSLSLSPGK
light: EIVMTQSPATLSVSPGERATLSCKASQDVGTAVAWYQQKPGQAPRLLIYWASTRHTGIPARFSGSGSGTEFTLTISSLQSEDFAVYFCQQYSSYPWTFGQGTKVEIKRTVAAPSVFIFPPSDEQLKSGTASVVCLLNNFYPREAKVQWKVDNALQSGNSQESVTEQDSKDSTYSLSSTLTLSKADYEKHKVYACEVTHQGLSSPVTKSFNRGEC
notes: Humanized IgG2 (V234A, G237A)/κ; also called No. 14
Kd [4]: 0.634 nM
koff [4]: 0.00117 s⁻¹
kon [4]: 1.89e+06 M⁻¹ s⁻¹

B19: HK1L4 (antibody, human IgG2, kappa, V domains shown)
VH: B3 VH with L47Y
VL: B13 VL with S43A
notes: Humanized IgG2 (V234A, G237A)/κ; also called No. 9
Kd [3]: 4.34 nM
koff [3]: 0.0118 s⁻¹
kon [3]: 2.78e+06 M⁻¹ s⁻¹

B20: HK3L4 (antibody, human IgG2, kappa)
heavy: B16 heavy with S49A, R87K
light: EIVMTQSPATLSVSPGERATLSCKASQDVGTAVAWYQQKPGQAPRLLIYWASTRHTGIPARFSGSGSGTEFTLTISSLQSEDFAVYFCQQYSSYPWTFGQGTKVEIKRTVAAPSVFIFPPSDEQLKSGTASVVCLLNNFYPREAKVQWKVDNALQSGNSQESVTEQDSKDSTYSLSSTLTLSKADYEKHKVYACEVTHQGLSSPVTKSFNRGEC
notes: Humanized IgG2 (V234A, G237A)/κ; also called No. 19
Kd [4]: 0.755 nM
koff [4]: 0.0012 s⁻¹
kon [4]: 1.61e+06 M⁻¹ s⁻¹

B22: HA2L4 (antibody, human IgG2, kappa)
heavy: B16 heavy with P61A, D62N
light: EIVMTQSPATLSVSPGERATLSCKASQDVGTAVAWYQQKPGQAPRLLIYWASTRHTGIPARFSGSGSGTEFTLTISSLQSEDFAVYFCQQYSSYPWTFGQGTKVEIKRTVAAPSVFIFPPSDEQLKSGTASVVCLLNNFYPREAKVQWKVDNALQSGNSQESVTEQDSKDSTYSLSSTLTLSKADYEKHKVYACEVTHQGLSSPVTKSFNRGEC
notes: Humanized IgG2 (V234A, G237A)/κ; also called No. 29
Kd [4]: 0.738 nM
koff [4]: 0.00169 s⁻¹
kon [4]: 2.33e+06 M⁻¹ s⁻¹

Second part, the binder after the results:

Kd [1]: 0.776 nM
koff [1]: 0.0015 s⁻¹
kon [1]: 2.01e+06 M⁻¹ s⁻¹
B1: HA2L5(Lys-) (antibody, human IgG2, kappa)
heavy: EVQLVESGGGLVQPGGSLRLSCAASGFTFSSYGMSWVRQAPGKGLELVSTINSNGGRTYYANSVKGRFTISRDNSKNTLYLQMGSLRAEDMAVYYCARDQGFAYWGQGTLVTVSSASTKGPSVFPLAPCSRSTSESTAALGCLVKDYFPEPVTVSWNSGALTSGVHTFPAVLQSSGLYSLSSVVTVPSSNFGTQTYTCNVDHKPSNTKVDKTVERKCCVECPPCPAPPAAAPSVFLFPPKPKDTLMISRTPEVTCVVVDVSHEDPEVQFNWYVDGVEVHNAKTKPREEQFNSTFRVVSVLTVVHQDWLNGKEYKCKVSNKGLPAPIEKTISKTKGQPREPQVYTLPPSREEMTKNQVSLTCLVKGFYPSDIAVEWESNGQPENNYKTTPPMLDSDGSFFLYSKLTVDKSRWQQGNVFSCSVMHEALHNHYTQKSLSLSPG
light: DIQMTQSPSSLSASVGDRVTITCKASQDVGTAVAWYQQKPGKSPKLLIYWASTRHTGVPSRFSGSGSGTDFTLTISSLQPEDVATYFCQQYSSYPWTFGQGTKVEIKRTVAAPSVFIFPPSDEQLKSGTASVVCLLNNFYPREAKVQWKVDNALQSGNSQESVTEQDSKDSTYSLSSTLTLSKADYEKHKVYACEVTHQGLSSPVTKSFNRGEC
notes: Humanized IgG2 (V234A, G237A)/κ; also called No. 33

Kd [1]: 0.838 nM
koff [1]: 0.00151 s⁻¹
kon [1]: 1.83e+06 M⁻¹ s⁻¹
B2: HA2L6(Lys-) (antibody, human IgG2, kappa, V domains shown)
VH: B3 VH with P61A, D62N
VL: B13 VL
notes: Humanized IgG2 (V234A, G237A)/κ; also called No. 40

Kd [2]: 1.29 nM
koff [2]: 0.00145 s⁻¹
kon [2]: 1.13e+06 M⁻¹ s⁻¹
B6: HK3L2 (antibody, human IgG2, kappa, V domains shown)
VH: B3 VH with S49A, R87K
VL: B3 VL
notes: Humanized IgG2 (V234A, G237A)/κ; also called No. 17

Kd [2]: 1.76 nM
koff [2]: 0.00133 s⁻¹
kon [2]: 783000 M⁻¹ s⁻¹
B8: HK3L1 (antibody, human IgG2, kappa, V domains shown)
VH: B3 VH with S49A, R87K
VL: B3 VL with F87Y
notes: Humanized IgG2 (V234A, G237A)/κ; also called No. 16

Kd [4]: 0.601 nM
koff [4]: 0.00102 s⁻¹
kon [4]: 1.72e+06 M⁻¹ s⁻¹
B9: HK3L5 (antibody, human IgG2, kappa)
heavy: B16 heavy with S49A, R87K
light: B1 light
notes: Humanized IgG2 (V234A, G237A)/κ; also called No. 20

Kd [4]: 0.612 nM
koff [4]: 0.00136 s⁻¹
kon [4]: 2.49e+06 M⁻¹ s⁻¹
B10: HA2L5 (antibody, human IgG2, kappa)
heavy: B16 heavy with P61A, D62N
light: B1 light
notes: Humanized IgG2 (V234A, G237A)/κ; also called No. 30

Kd [3]: 7.2 nM
koff [3]: 0.0452 s⁻¹
kon [3]: 6.36e+06 M⁻¹ s⁻¹
B11: HA1L5 (antibody, human IgG2, kappa, V domains shown)
VH: B3 VH with L47Y, P61A, D62N
VL: B3 VL with V43S
notes: Humanized IgG2 (V234A, G237A)/κ; also called No. 25

Kd [4]: 0.549 nM
koff [4]: 0.00112 s⁻¹
kon [4]: 2.07e+06 M⁻¹ s⁻¹
B12: HK2L5 (antibody, human IgG2, kappa)
heavy: B16 heavy
light: B1 light
notes: Humanized IgG2 (V234A, G237A)/κ; also called No. 15

Kd [2]: 1.41 nM
koff [2]: 0.00222 s⁻¹
kon [2]: 1.63e+06 M⁻¹ s⁻¹
B14: HA2L2 (antibody, human IgG2, kappa, V domains shown)
VH: B3 VH with P61A, D62N
VL: B3 VL
notes: Humanized IgG2 (V234A, G237A)/κ; also called No. 27

Kd [3]: 4.87 nM
koff [3]: 0.0196 s⁻¹
kon [3]: 3.71e+06 M⁻¹ s⁻¹
B17: HK1L3 (antibody, human IgG2, kappa, V domains shown)
VH: B3 VH with L47Y
VL: B13 VL with S43A, F87Y
notes: Humanized IgG2 (V234A, G237A)/κ; also called No. 8

Kd [4]: 0.682 nM
koff [4]: 0.00109 s⁻¹
kon [4]: 1.62e+06 M⁻¹ s⁻¹
B18: HK2L3 (antibody, human IgG2, kappa)
heavy: B16 heavy
light: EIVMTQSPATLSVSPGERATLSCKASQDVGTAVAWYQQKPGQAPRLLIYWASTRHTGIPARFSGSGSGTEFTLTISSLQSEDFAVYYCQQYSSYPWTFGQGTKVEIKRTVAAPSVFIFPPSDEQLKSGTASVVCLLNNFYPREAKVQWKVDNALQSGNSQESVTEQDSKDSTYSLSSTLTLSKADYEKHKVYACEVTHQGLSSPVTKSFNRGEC
notes: Humanized IgG2 (V234A, G237A)/κ; also called No. 13

Kd [4]: 0.727 nM
koff [4]: 0.00137 s⁻¹
kon [4]: 1.95e+06 M⁻¹ s⁻¹
B21: HA2L3 (antibody, human IgG2, kappa)
heavy: B16 heavy with P61A, D62N
light: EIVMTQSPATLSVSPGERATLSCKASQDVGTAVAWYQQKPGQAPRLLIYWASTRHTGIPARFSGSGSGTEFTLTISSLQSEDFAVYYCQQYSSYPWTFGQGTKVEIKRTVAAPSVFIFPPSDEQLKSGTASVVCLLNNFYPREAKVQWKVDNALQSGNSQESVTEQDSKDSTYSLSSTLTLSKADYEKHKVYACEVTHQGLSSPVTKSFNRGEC
notes: Humanized IgG2 (V234A, G237A)/κ; also called No. 28

Kd [4]: 0.897 nM
koff [4]: 0.00104 s⁻¹
kon [4]: 1.22e+06 M⁻¹ s⁻¹
B23: HK3L3 (antibody, human IgG2, kappa)
heavy: B16 heavy with S49A, R87K
light: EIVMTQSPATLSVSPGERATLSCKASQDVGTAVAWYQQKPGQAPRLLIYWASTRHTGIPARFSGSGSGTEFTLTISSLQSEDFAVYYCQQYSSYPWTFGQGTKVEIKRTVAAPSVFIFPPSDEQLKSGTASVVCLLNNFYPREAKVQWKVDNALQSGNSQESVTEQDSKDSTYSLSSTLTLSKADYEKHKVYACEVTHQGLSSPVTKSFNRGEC
notes: Humanized IgG2 (V234A, G237A)/κ; also called No. 18
